Results reported in paper PMC6021487.

Biological target: IL-33 (UniProt O95760)
Assay: co-immunoprecipitation with anti-HA, immunoblot
Conditions: reference: wild type PTRF; sites Y158

polymerase I and transcript release factor (PTRF, Cavin-1) (from UniProt O54724) PTRF Y158F
binding against the reference: stronger
